Test results: patent publication US20190024103

Key:
Assay in all cases: cell_activity
Settings in all cases: TALEN pair
[1] = test system: GmFAD3_T02 TALEN right monomer (synthetic)
[2] = test system: GmFAD3_T01 TALEN left monomer (synthetic)
[3] = test system: GmFAD3_T02 TALEN left monomer (synthetic)
[4] = test system: GmFAD3_T01 TALEN right monomer (synthetic)
[5] = test system: GmFAD3_T03 TALEN right monomer (synthetic)
[6] = test system: GmFAD3_T03 TALEN left monomer (synthetic)
[7] = soybean protoplasts, text p95 gives 2.39

Sequence: ACTCAATTCTTGTGCC (double strand) [FAD3A_T02 right]
- activity ([1]; soybean protoplasts): 14.5 % NHEJ

Sequence: ATGGTTCAAGCACAGCCTCTACAACATGTTGGTAATGGTGCAGGGAAAGAAGATCAAGCTTATTTTGATCCAAGTGCTCCACCACCCTTCAAGATTGCAAATATCAGAGCAGCAATTCCAAAACATTGCTGGGAGAAGAACACATTGAGATCTCTGAGTTATGTTCTGAGGGATGTGTTGGTAGTGACTGCATTGGTAGCTGCAGCAATCGGCTTCAATAGCTGGTTCTTCTGGCCACTCTATTGGCCTGCACAAGGCACAATGTTTTGGGCACTTTTTGTTCTTGGACATGATTGGTAACTAATTATTATTACAAATTGTTATGTTATGTTATGTTATGTTGTTGTGCCTTTTTCTCAGTGATGCTTTAGTCATTTCATTTCACTTGGTTATGCATGATTGTTCGTTCATATGTTCTGTCATGGTGAGTTCTAATTTGATTGATGCATGGAACAGTGGTCATGGAAGTTTTTCAAACAGTCCTTTGTTGAACAGCATTGTGGGCCACATCTTGCACTCTTCAATTCTTGTACCATACCATGGATGGTCGGTTCCTTTTAGCAACTTTTCATGTTCACTTTGTCCTTAAATTTTTTTTTATGTTTGTTAAAAAATCTTTGGTCTGATTTAACAACCTAACCATTTTTACAACTCATGGATTTTTTGCAGGAGAATTAGCCACAGGACTCACCATCAGAACCATGGCCATGTTGAGAAGGATGAATCATGGGTTCCG (double strand) [FAD3C gene]
- activity ([2]; FAD3C off-target): 0.04 % NHEJ
- activity ([3]; FAD3C off-target): 0.01 % NHEJ
- activity ([4]; FAD3C off-target): 0.04 % NHEJ
- activity ([5]; FAD3C off-target): 0.17 % NHEJ
- activity ([6]; FAD3C off-target): 0.17 % NHEJ
- activity ([1]; FAD3C off-target): 0.01 % NHEJ

Sequence: CTGAATAGCCTGGTGG (double strand) [FAD3B T02 left site]
- activity ([3]; FAD3B off-target): 8.81 % NHEJ

Sequence: TCATTCTTCACATTGT (double strand) [FAD3A_T01 left]
- activity ([2]; soybean protoplasts): 10.2 % NHEJ

Sequence: CTAAATAGCCTGGTGT (double strand) [FAD3A_T02 left]
- activity ([3]; soybean protoplasts): 14.5 % NHEJ

Sequence: CCTCAATTCTTGTGCC (double strand) [FAD3B T02 right site]
- activity ([1]; FAD3B off-target): 8.81 % NHEJ

Sequence: AGGAAGCTTTTCAGAC (double strand) [FAD3A_T01 right]
- activity ([4]; soybean protoplasts): 10.2 % NHEJ

Sequence: ATGGTTAAAGACACAAAGCCTTTAGCCTATGCTGCCAATAATGGATACCAACAAAAGGGTTCTTCTTTTGATTTTGATCCTAGCGCTCCTCCACCGTTTAAGATTGCAGAAATCAGAGCTTCAATACCAAAACATTGCTGGGTCAAGAATCCATGGAGATCCCTCAGTTATGTTCTCAGGGATGTGCTTGTAATTGCTGCATTGGTGGCTGCAGCAATTCACTTCGACAACTGGCTTCTCTGGCTAATCTATTGCCCCATTCAAGGCACAATGTTCTGGGCTCTCTTTGTTCTTGGACATGATTGGTAATAATTTTTGTGTTTCTTACTCTTTTTTTTTTTTTTTTGTTTATGATATGAATCTCACACATTGTTCTGTTATGTCATTTCTTCTTCATTTGGCTTTAGACAACTTAAATTTGAGATCTTTATTATGTTTTTGCTTATATGGTAAAGTGATTCTTCATTATTTCATTCTTCATTGATTGAATTGAACAGTGGCCATGGAAGCTTTTCAGATAGCCCTTTGCTGAATAGCCTGGTGGGACACATCTTGCATTCCTCAATTCTTGTGCCATACCATGGATGGTTAGTTCATACTGGCTTTTTTGTTTGTTCATTTGTCATTGAAAAAAAATCTTTTGTTGATTCAATTATTTTTATAGTGTGTTTGGAAGCCCGTTTGAGAAAATAAGAAATCGCATCTGGAATGTGAAAGTTATAACTATTTAGCTTCATCTGTCGTTGCAAGTTCTTTTATTGGTTAAATTTTTATAGCGTGCTAGGAAACCCATTCGAGAAAATAAGAAATCACATCTGGAATGTGAAAGTTATAACTGTTAGCTTCTGAGTAAACGTGGAAAAACCACATTTTGGATTTGGAACCAAATTTTATTTGATAAATGACAACCAAATTGATTTTGATGGATTTTGCAGGAGAATTAGCCACAGAACTCACCATCAAAACCATGGACACATTGAGAAGGATGAGTCATGGGTTCCA (double strand) [FAD3B gene]
- activity ([2]; FAD3B off-target): 1.48 % NHEJ
- activity ([4]; FAD3B off-target): 1.48 % NHEJ
- activity ([5]; FAD3B off-target): 2.39 % NHEJ
- activity ([6]; FAD3B off-target): 2.39 % NHEJ

Sequence: ACAAAATCATGGACAC (double strand) [FAD3A_T03 right]
- activity [5, 7]: 4.4 % NHEJ

Sequence: TTTGCAGGAGAATTAT (double strand) [FAD3A_T03 left]
- activity [6, 7]: 4.4 % NHEJ
